Results on four variants are retold here after IntAct's records for PubMed 30126976.

First the molecules themselves.
B1: Vang-like protein 2 (Homo sapiens), Q9ULK5 (parent)
chain: MDTESQYSGYSYKSGHSRSSRKHRDRRDRHRSKSRDGGRGDKSVTIQAPGEPLLDNESTRGDERDDNWGETTTVVTGTSEHSISHDDLTRIAKDMEDSVPLDCSRHLGVAAGATLALLSFLTPLAFLLLPPLLWREELEPCGTACEGLFISVAFKLLILLLGSWALFFRRPKASLPRVFVLRALLMVLVFLLVVSYWLFYGVRILDARERSYQGVVQFAVSLVDALLFVHYLAVVLLELRQLQPQFTLKVVRSTDGASRFYNVGHLSIQRVAVWILEKYYHDFPVYNPALLNLPKSVLAKKVSGFKVYSLGEENSTNNSTGQSRAVIAAAARRRDNSHNEYYYEEAEHERRVRKRRARLVVAVEEAFTHIKRLQEEEQKNPREVMDPREAAQAIFASMARAMQKYLRTTKQQPYHTMESILQHLEFCITHDMTPKAFLERYLAAGPTIQYHKERWLAKQWTLVSEEPVTNGLKDGIVFLLKRQDFSLVVSTKKVPFFKLSEEFVDPKSHKFVMRLQSETSV
B2: Prostaglandin D2 receptor (Homo sapiens), Q13258 (parent)
chain: MKSPFYRCQNTTSVEKGNSAVMGGVLFSTGLLGNLLALGLLARSGLGWCSRRPLRPLPSVFYMLVCGLTVTDLLGKCLLSPVVLAAYAQNRSLRVLAPALDNSLCQAFAFFMSFFGLSSTLQLLAMALECWLSLGHPFFYRRHITLRLGALVAPVVSAFSLAFCALPFMGFGKFVQYCPGTWCFIQMVHEEGSLSVLGYSVLYSSLMALLVLATVLCNLGAMRNLYAMHRRLQRHPRSCTRDCAEPRADGREASPQPLEELDHLLLLALMTVLFTMCSLPVIYRAYYGAFKDVKEKNRTSEEAEDLRALRFLSVISIVDPWIFIIFRSPVFRIFFHKIFIRPLRYRSRCSNSTNMESSL
B3: Vang-like protein 1 (Homo sapiens), Q8TAA9 (parent)
chain: MDTESTYSGYSYYSSHSKKSHRQGERTRERHKSPRNKDGRGSEKSVTIQPPTGEPLLGNDSTRTEEVQDDNWGETTTAITGTSEHSISQEDIARISKDMEDSVGLDCKRYLGLTVASFLGLLVFLTPIAFILLPPILWRDELEPCGTICEGLFISMAFKLLILLIGTWALFFRKRRADMPRVFVFRALLLVLIFLFVVSYWLFYGVRILDSRDRNYQGIVQYAVSLVDALLFIHYLAIVLLELRQLQPMFTLQVVRSTDGESRFYSLGHLSIQRAALVVLENYYKDFTIYNPNLLTASKFRAAKHMAGLKVYNVDGPSNNATGQSRAMIAAAARRRDSSHNELYYEEAEHERRVKKRKARLVVAVEEAFIHIQRLQAEEQQKAPGEVMDPREAAQAIFPSMARALQKYLRITRQQNYHSMESILQHLAFCITNGMTPKAFLERYLSAGPTLQYDKDRWLSTQWRLVSDEAVTNGLRDGIVFVLKCLDFSLVVNVKKIPFIILSEEFIDPKSHKFVLRLQSETSV
B4: Neuroepithelial cell-transforming gene 1 protein (Homo sapiens), Q7Z628 (parent)
chain: MEPELAAQKQPRPRRRSRRASGLSTEGATGPSADTSGSELDGRCSLRRGSSFTFLTPGPNWDFTLKRKRREKDDDVVSLSSLDLKEPSNKRVRPLARVTSLANLISPVRNGAVRRFGQTIQSFTLRGDHRSPASAQKFSSRSTVPTPAKRRSSALWSEMLDITMKESLTTREIRRQEAIYEMSRGEQDLIEDLKLARKAYHDPMLKLSIMSEEELTHIFGDLDSYIPLHEDLLTRIGEATKPDGTVEQIGHILVSWLPRLNAYRGYCSNQLAAKALLDQKKQDPRVQDFLQRCLESPFSRKLDLWSFLDIPRSRLVKYPLLLKEILKHTPKEHPDVQLLEDAILIIQGVLSDINLKKGESECQYYIDKLEYLDEKQRDPRIEASKVLLCHGELRSKSGHKLYIFLFQDILVLTRPVTRNERHSYQVYRQPIPVQELVLEDLQDGDVRMGGSFRGAFSNSEKAKNIFRIRFHDPSPAQSHTLQANDVFHKQQWFNCIRAAIAPFQSAGSPPELQGLPELHEECEGNHPSARKLTAQRRASTVSSVTQVEVDENAYRCGSGMQMAEDSKSLKTHQTQPGIRRARDKALSGGKRKETLV

Variants of B1 are the subject of one assay. The conditions noted are these: with dlg1_human DLG1, Q12959.
Target sequence in this assay (Q12959 whole entry, looked up): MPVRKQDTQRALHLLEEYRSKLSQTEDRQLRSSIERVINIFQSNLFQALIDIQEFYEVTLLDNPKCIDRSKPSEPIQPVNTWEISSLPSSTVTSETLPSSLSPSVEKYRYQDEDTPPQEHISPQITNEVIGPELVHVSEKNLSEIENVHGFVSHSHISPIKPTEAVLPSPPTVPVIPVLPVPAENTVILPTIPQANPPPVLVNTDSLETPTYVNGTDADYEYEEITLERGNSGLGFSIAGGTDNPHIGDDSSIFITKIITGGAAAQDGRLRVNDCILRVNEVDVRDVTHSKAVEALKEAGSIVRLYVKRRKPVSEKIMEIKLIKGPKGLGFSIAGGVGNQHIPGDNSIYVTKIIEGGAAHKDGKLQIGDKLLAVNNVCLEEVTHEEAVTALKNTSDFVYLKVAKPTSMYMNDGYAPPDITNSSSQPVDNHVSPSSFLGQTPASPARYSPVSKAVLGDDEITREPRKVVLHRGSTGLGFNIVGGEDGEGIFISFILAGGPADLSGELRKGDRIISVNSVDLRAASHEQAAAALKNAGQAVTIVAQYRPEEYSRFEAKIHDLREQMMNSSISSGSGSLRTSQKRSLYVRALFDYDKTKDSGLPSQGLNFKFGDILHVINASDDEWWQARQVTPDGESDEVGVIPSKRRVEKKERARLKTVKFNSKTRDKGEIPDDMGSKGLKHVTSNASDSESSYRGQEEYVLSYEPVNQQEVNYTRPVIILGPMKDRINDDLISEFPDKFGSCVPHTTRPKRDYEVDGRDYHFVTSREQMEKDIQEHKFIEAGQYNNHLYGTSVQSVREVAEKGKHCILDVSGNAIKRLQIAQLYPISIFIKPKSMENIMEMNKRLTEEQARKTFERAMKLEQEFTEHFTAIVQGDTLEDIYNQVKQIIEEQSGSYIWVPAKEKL
On to MDTESQYSGYSYKSGHSRSSRKHRDRRDRHRSKSRDGGRGDKSVTIQAPGEPLLDNESTRGDERDDNWGETTTVVTGTSEHSISHDDLTRIAKDMEDSVPLDCSRHLGVAAGATLALLSFLTPLAFLLLPPLLWREELEPCGTACEGLFISVAFKLLILLLGSWALFFRRPKASLPRVFVLRALLMVLVFLLVVSYWLFYGVRILDARERSYQGVVQFAVSLVDALLFVHYLAVVLLELRQLQPQFTLKVVRSTDGASRFYNVGHLSIQRVAVWILEKYYHDFPVYNPALLNLPKSVLAKKVSGFKVYSLGEENSTNNSTGQSRAVIAAAARRRDNSHNEYYYEEAEHERRVRKRRARLVVAVEEAFTHIKRLQEEEQKNPREVMDPREAAQAIFASMARAMQKYLRTTKQQPYHTMESILQHLEFCITHDMTPKAFLERYLAAGPTIQYHKERWLAKQWTLVSEEPVTNGLKDGIVFLLKRQDFSLVVSTKKVPFFKLSEEFVDPKSHKFVMRLQEETEV [S517E;S520E], for which the “effect of a mutation on the interaction” value is listed as “with no effect”.

In another assay the parent is B2. The conditions noted are these: with scrib_human SCRIB.
In the case of MKSPFYRCQNTTSVEKGNSAVMGGVLFSTGLLGNLLALGLLARSGLGWCSRRPLRPLPSVFYMLVCGLTVTDLLGKCLLSPVVLAAYAQNRSLRVLAPALDNSLCQAFAFFMSFFGLSSTLQLLAMALECWLSLGHPFFYRRHITLRLGALVAPVVSAFSLAFCALPFMGFGKFVQYCPGTWCFIQMVHEEGSLSVLGYSVLYSSLMALLVLATVLCNLGAMRNLYAMHRRLQRHPRSCTRDCAEPRADGREASPQPLEELDHLLLLALMTVLFTMCSLPVIYRAYYGAFKDVKEKNRTSEEAEDLRALRFLSVISIVDPWIFIIFRSPVFRIFFHKIFIRPLRYRSRCSNSTNMESEL [S358E], the “effect of a mutation on the interaction” value is “causing an interaction”.

In the next assay the parent is B3. The following applies: with dlg1_human DLG1, Q12959.
Target sequence in this assay (Q12959 whole entry, looked up): as the sequence (Q12959 whole entry, looked up) above
Regarding MDTESTYSGYSYYSSHSKKSHRQGERTRERHKSPRNKDGRGSEKSVTIQPPTGEPLLGNDSTRTEEVQDDNWGETTTAITGTSEHSISQEDIARISKDMEDSVGLDCKRYLGLTVASFLGLLVFLTPIAFILLPPILWRDELEPCGTICEGLFISMAFKLLILLIGTWALFFRKRRADMPRVFVFRALLLVLIFLFVVSYWLFYGVRILDSRDRNYQGIVQYAVSLVDALLFIHYLAIVLLELRQLQPMFTLQVVRSTDGESRFYSLGHLSIQRAALVVLENYYKDFTIYNPNLLTASKFRAAKHMAGLKVYNVDGPSNNATGQSRAMIAAAARRRDSSHNELYYEEAEHERRVKKRKARLVVAVEEAFIHIQRLQAEEQQKAPGEVMDPREAAQAIFPSMARALQKYLRITRQQNYHSMESILQHLAFCITNGMTPKAFLERYLSAGPTLQYDKDRWLSTQWRLVSDEAVTNGLRDGIVFVLKCLDFSLVVNVKKIPFIILSEEFIDPKSHKFVLRLQSETEV [S523E], the “effect of a mutation on the interaction” value is “increasing interaction strength”.

The variants in the next assay derive from B4. The following applies: with dlg1_human DLG1, Q12959.
Target sequence in this assay (Q12959 whole entry, looked up): as the sequence (Q12959 whole entry, looked up) above
Turning to MEPELAAQKQPRPRRRSRRASGLSTEGATGPSADTSGSELDGRCSLRRGSSFTFLTPGPNWDFTLKRKRREKDDDVVSLSSLDLKEPSNKRVRPLARVTSLANLISPVRNGAVRRFGQTIQSFTLRGDHRSPASAQKFSSRSTVPTPAKRRSSALWSEMLDITMKESLTTREIRRQEAIYEMSRGEQDLIEDLKLARKAYHDPMLKLSIMSEEELTHIFGDLDSYIPLHEDLLTRIGEATKPDGTVEQIGHILVSWLPRLNAYRGYCSNQLAAKALLDQKKQDPRVQDFLQRCLESPFSRKLDLWSFLDIPRSRLVKYPLLLKEILKHTPKEHPDVQLLEDAILIIQGVLSDINLKKGESECQYYIDKLEYLDEKQRDPRIEASKVLLCHGELRSKSGHKLYIFLFQDILVLTRPVTRNERHSYQVYRQPIPVQELVLEDLQDGDVRMGGSFRGAFSNSEKAKNIFRIRFHDPSPAQSHTLQANDVFHKQQWFNCIRAAIAPFQSAGSPPELQGLPELHEECEGNHPSARKLTAQRRASTVSSVTQVEVDENAYRCGSGMQMAEDSKSLKTHQTQPGIRRARDKALSGGKRKEELV [T594E], the “effect of a mutation on the interaction” value is reported as “disrupting interaction strength”.
